In IntAct's records for PubMed 25477193:

How the values were obtained:
kap3_human PRKAR2B [1] = target: kap3_human PRKAR2B (UniProt P31323)
kap3_human PRKAR2B [2] = target: kap3_human PRKAR2B (UniProt P31323); remark: listed apart in the source

- effect of a mutation on the interaction (kap3_human PRKAR2B [1]): decreasing interaction strength
- effect of a mutation on the interaction (kap3_human PRKAR2B [2]): disrupting interaction strength
Substance: cAMP-dependent protein kinase catalytic subunit alpha (Homo sapiens) (from UniProt P17612) L206R
